Data taken from publication PMC4176187.

Target: 40S ribosomal subunits purified from rabbit reticulocyte lysate (rabbit) (UniProt G1U0Q2)
Test: protein transfer assay

percent of the protein transferred from scAlu RNA to 40S [%]	Substance
16	human recombinant SRP9/14A5 (basic pentapeptide K96-K100 of SRP14 mutated) (from UniProt P49458 1-86; P37108 1-136) (complex)
41	human recombinant SRP9/14 protein heterodimer, wild type (from UniProt P49458 1-86; P37108 1-136) (complex)
